Reference: US20190010233A1 (JIANGSU HYAMAB PHARMACEUTICAL, published 2019)
Positions count from the first letter of the chain named.

T1: hPD-L2 (human, UniProt Q9BQ51 20-219, limits assumed)
T1 construct: Bought protein
T1 sequence (looked up): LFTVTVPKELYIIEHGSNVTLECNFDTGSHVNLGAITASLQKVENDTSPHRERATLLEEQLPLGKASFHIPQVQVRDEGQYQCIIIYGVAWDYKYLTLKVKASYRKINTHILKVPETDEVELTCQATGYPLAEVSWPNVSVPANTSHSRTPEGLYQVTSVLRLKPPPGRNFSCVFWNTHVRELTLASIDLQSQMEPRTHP

B1: chimeric anti-PD-L1 antibody 127D2F3 (antibody, V domains shown)
VH: EVQLVESGGGLVQPGGSLRLSCVASGFTFSSYWMSWVRQAPGKGLEWVANIKQDGSEKYYVDSVKGRLTISRDNAKNSLYLQMKSLRAEDTAVYYCARDPIYSSYFDYWGQGILVTVSS
VL: DIQMTQSPSSLSASVGDRVTITCRASQSISNYLNWYQQKPGKAPKLLIYAASSLQSGVPSRFSGSGSGTDFTLTISSLQPEDFAAYYCQQSYGIPFTFGPGTKVDIK
notes: Purified from hybridoma of Harbour H2L2 mice: human variable regions, rat constant regions
B2: chimeric anti-PD-L1 antibody 192D9E7 (antibody, V domains shown)
VH: EVQLVESGGGLVQPGGSLRLSCAASGFTFSSYWMSWVRQAPGKGLEWVADIKQDGSEKYYVDSVKGRFTISRDNAKNSLYLQMNSLRAEDTAVYYCTRDKPHWGGVMDAWGQGTSVTVSS
VL: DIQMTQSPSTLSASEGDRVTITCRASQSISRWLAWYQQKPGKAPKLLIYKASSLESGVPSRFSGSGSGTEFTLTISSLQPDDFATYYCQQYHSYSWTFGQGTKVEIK
notes: as for B1
B3: chimeric anti-PD-L1 antibody 73G11B3 (antibody, V domains shown)
VH: EVQLVESGGGLVQPGGSLRLSCVVSGFTFSSYWMSWVRQTPGKGLEWVANIKQDGSEKYYVDSVKGRLTISRDNAKNSLYLQMNSLRAEDTAVYYCVRDRAVPGTGALDIWGQGTMVTVSS
VL: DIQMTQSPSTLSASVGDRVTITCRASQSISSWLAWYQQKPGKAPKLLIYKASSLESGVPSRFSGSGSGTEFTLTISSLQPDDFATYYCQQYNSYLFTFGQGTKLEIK
notes: as for B1
B4: chimeric anti-PD-L1 antibody 105C5D7 (antibody, V domains shown)
VH: EVQLVESGGGLVQPGGSLRLSCAASGFTFSSYWMSWVRQAPGKGLEWVANIKQDGNEKYYVDSVKGRFTISRDNAKNSLYLQMNSLRAEDTAVYYCARNIKWGDAFDIWGQGTMVTVSS
VL: B1 VL with N31S, A85I, Y87S, G93S, F96L, P100G, D105E
notes: as for B1
B5: chimeric anti-PD-L1 antibody 73D3G2 (antibody, V domains shown)
VH: EVQLVESGGGLVQPGGSLRLSCAASGFTFNTYWMNWVRQAPGRGLEWVANIKQDGGEKYYVDSVKGRFTISRDNAKNSLYLQMNSLRAEDTAMYYCARDGRSWYPDAFDIWGQGTVVTVSS
VL: DIQMTQSPSTLSASVGDRVTITCRASQSISTWLAWYQQKLGKAPKLLIYEVSILESGVPSRFSGSGSGTEFTLTISSLQPDDFATYYCQQYHSFSSFGGGTRVEIK
notes: as for B1
B6: chimeric anti-PD-L1 antibody 78A11F6 (antibody, V domains shown)
VH: B3 VH with V23A, V24A, F27I, D62K, L68F, L108F, T118I
VL: DIQMTQSPSTLSASVGDRVTITCRASQSISNWLAWYQQKPGKAPKLLIYKASSLESGVPSRFSGSGSGTEFTLTISSLQPDDFATYYCQQYDSSLFTFGQGTKLEIK
notes: as for B1

Target: T2, full length human PD-L1 on cells (human, UniProt Q9NZQ7 19-290)
T2 sequence (Q9NZQ7 19-290 limits assumed): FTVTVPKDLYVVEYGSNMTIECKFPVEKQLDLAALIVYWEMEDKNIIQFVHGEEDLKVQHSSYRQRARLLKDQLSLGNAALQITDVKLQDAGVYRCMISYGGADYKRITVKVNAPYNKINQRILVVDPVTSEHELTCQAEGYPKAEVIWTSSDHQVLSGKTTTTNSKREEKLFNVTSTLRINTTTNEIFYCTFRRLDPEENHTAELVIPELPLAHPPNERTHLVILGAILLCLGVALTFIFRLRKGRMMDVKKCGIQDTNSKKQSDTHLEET
Test: cell-based or functional assay

IL-2 (pg/mL), MLR donor 2, 0.001 µg/mL mAb | IL-2 (pg/mL), MLR donor 2, 0.01 µg/mL mAb | IL-2 (pg/mL), MLR donor 2, 0.1 µg/mL mAb | IL-2 (pg/mL), MLR donor 2, 1 µg/mL mAb | Binder
68.2 pg/mL | 100 pg/mL | 71.5 pg/mL | 101 pg/mL | B1
73.4 pg/mL | 130 pg/mL | 120 pg/mL | 94.4 pg/mL | B2
54.2 pg/mL | 90.1 pg/mL | 110 pg/mL | 140 pg/mL | B3

Target: T2, full length human PD-L1 on cells
Test: cell-based or functional assay
Remark: another data set of the same source

IFN-γ (pg/mL), PBMC stimulation, 0.001 µg/mL mAb | IFN-γ (pg/mL), PBMC stimulation, 0.01 µg/mL mAb | IFN-γ (pg/mL), PBMC stimulation, 0.1 µg/mL mAb | IFN-γ (pg/mL), PBMC stimulation, 1 µg/mL mAb | IFN-γ (pg/mL), PBMC stimulation, 10 µg/mL mAb | Binder
1640 pg/mL | 3380 pg/mL | 5850 pg/mL | 7570 pg/mL | – | B4
3380 pg/mL | 7030 pg/mL | 7610 pg/mL | 8100 pg/mL | 10100 pg/mL | B1
602 pg/mL | 501 pg/mL | 7470 pg/mL | 8300 pg/mL | 15700 pg/mL | B2
3830 pg/mL | 3280 pg/mL | 9560 pg/mL | 8760 pg/mL | – | B5
3740 pg/mL | 11100 pg/mL | 6100 pg/mL | 13000 pg/mL | – | B6
2400 pg/mL | 5700 pg/mL | 6290 pg/mL | 7860 pg/mL | 10700 pg/mL | B3

Target: T2, full length human PD-L1 on cells
Test: FACS CHO-K1-hPD-L1, 100.00 nM mAb

Mean fluorescence intensity | Binder
182 | B4
234 | B1
146 | B2
124 | B5
232 | B6
215 | B3

Target: T2, full length human PD-L1 on cells
Test: FACS CHO-K1-hPD-L1, 10 nM mAb
Procedure: (§1) Other CHO-K1 were stably transfected with a pIRES plasmid containing the nucleic acid sequence encoding full length cyno PD-L1 to generate CHO-K1 cells stably expressing cyno PD-L1 (herein referred to as CHO-K1-cPD-L1 cells). […] The culture media was aspirated, and the cells were washed twice with HBSS (Hanks Balanced Salt Solution, Invitrogen). The cells were treated with enzyme-free cell dissociation solution (Versene solution, Invitrogen) and collected. The cells were then washed twice with HBSS, cell counts were determined, and cells were resuspended with HBSS at 2×10⁶ cells/mL. Goat serum was added to the cell suspension to a final concentration of 1%, and the cells were blocked for 30 minutes on ice and then washed twice with HBSS. The cells were collected after centrifugation and resuspended in FACS buffer (HBSS+1% BSA, v/v) at 2×10⁶ cells/mL. 100 μL of the cell suspension were then added to each well of 96-well plate. 100 μL of purified anti-PD-L1 antibodies from Example 2 were added to each well of the 96-well plate and incubated for 2 hours on ice. […] The samples were washed three times with FACS buffer, and 100 μL fixation buffer (4% paraformaldehyde v/v) were added to each well and incubated for 10 minutes. The cells were then washed twice with FACS buffer and resuspended in 100 μL FACS buffer. The mean fluorescence intensity (MFI) was determined using FACS Calibur (BD), and the results are shown in FIGS. 7-8 and in Tables 10-11.

Mean fluorescence intensity | Binder
235 | B1
134 | B2
213 | B3

Target: T2, full length human PD-L1 on cells
Test: FACS CHO-K1-hPD-L1, 0.1 nM mAb

Mean fluorescence intensity | Binder
15.5 | B1
23.5 | B2
17.2 | B3

Target: T3, cyno PD-L1^ECD-hFc protein (cyno, UniProt G7PSE7 19-239)
T3 construct: also called Cyno Monkey PD-L1^ECD-hFc
T3 sequence (G7PSE7 entry or part of it limits assumed): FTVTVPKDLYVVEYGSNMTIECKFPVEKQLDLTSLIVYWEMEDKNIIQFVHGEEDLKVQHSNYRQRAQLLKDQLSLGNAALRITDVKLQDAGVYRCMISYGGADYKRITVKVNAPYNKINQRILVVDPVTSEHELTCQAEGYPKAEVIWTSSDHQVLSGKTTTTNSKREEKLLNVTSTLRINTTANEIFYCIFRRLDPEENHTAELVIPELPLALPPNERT
Test: ELISA, 10 nM mAb
Procedure: (§2) 100 μL of the diluted recombinant proteins were added to each well of 96-well plate. The plates were sealed with plastic film and incubated at 4° C. overnight. The plates were washed twice with wash buffer (PBS+0.01% (v/v) Tween20), and incubated with blocking buffer (PBS+0.01% (v/v) Tween20+1% (w/w) BSA) at room temperature for 2 hours. The blocking buffer was aspirated away, and 100 μL of purified anti-PD-L1 antibodies were added to each well and incubated for 2 hours at 37° C. The plates were washed three times with wash buffer (PBS+0.01% (v/v) Tween20). HRP-conjugated secondary antibody (Sigma) was added to each well and incubated for 2 hours at 37° C. After the plates were washed three times with wash buffer, 100 μL TMB substrate were added to each well, and the plates were incubated for 30 minutes at room temperature. 100 μL stop solution (0.1N HCl) was added to each well to stop the reaction.

OD450 nm | Binder
1.56 | B4
2.09 | B5
2.07 | B6

Target: T4, human PD-L1^ECD-hFc protein (human, UniProt Q9NZQ7 19-239, biotinylated in the PD-1 binding ELISA (Table 3) and in the Octet assay (Table 12))
T4 construct: The plain and the biotinylated protein are kept as one molecule; also called PD-L1-hFc; Immunogen A; not shown: human IgG Fc fragment (hFc)
T4 sequence (Q9NZQ7 19-239): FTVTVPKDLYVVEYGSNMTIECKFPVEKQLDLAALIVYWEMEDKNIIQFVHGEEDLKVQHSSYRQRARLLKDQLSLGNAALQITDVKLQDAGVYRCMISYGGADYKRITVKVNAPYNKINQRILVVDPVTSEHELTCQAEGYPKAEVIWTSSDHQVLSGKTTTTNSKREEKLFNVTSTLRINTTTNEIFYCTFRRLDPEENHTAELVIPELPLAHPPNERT
Test: ELISA, 10 nM mAb
Procedure: as §2

OD450 nm | Binder
1.56 | B4
2.7 | B1
2.69 | B2
2.09 | B5
1.72 | B6
2.73 | B3

Target: T5, full length cyno PD-L1 on cells (cyno, UniProt G7PSE7 19-290)
T5 construct: also called CHO-K1-cPD-L1
T5 sequence (G7PSE7 entry or part of it limits assumed): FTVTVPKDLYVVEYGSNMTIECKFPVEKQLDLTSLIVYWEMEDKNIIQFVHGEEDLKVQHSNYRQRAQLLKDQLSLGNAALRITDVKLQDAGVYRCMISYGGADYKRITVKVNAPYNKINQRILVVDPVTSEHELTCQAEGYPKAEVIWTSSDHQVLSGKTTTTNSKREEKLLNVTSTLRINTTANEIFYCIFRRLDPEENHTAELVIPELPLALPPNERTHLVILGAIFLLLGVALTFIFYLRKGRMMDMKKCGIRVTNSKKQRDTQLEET
Test: FACS CHO-K1-cPD-L1, 3.70 nM mAb
Procedure: as §1

Mean fluorescence intensity | Binder
142 | B4
126 | B5
139 | B6

Target: T1, hPD-L2
Test: ELISA (numbers in Table 9)
Procedure: as §2

binding result | Binder
no binding | B4
no binding | B5
no binding | B6

Target: T5, full length cyno PD-L1 on cells
Test: FACS CHO-K1-cPD-L1, 0.1 nM mAb
Procedure: as §1

Mean fluorescence intensity | Binder
14.3 | B1
17 | B2
19.8 | B3

Target: T5, full length cyno PD-L1 on cells
Test: FACS CHO-K1-cPD-L1, 100.00 nM mAb
Procedure: as §1

Mean fluorescence intensity | Binder
120 | B4
117 | B1
87.9 | B2
137 | B5
144 | B6
107 | B3

Target: T5, full length cyno PD-L1 on cells
Test: FACS CHO-K1-cPD-L1, 0.01 nM mAb
Procedure: as §1

Mean fluorescence intensity | Binder
3.08 | B1
3.38 | B2
3.83 | B3

Target: T4, human PD-L1^ECD-hFc protein
Test: ELISA, 0.123 nM mAb
Procedure: as §2

OD450 nm | Binder
0.67 | B4
0.72 | B5
0.84 | B6

Target: T4, human PD-L1^ECD-hFc protein
Test: BLI Octet Red 96, biotinylated PD-L1-hFc on SA sensor
Procedure: Dissociation constants were determined by Octed red 96 (Fortiebio). The detailed operation and methods were followed according to the specifications of the instrument provided by the manufacturer. Briefly, a streptavidin sensor (SA sensor, Fortiebio) was used for the affinity determination. […] The reaction mixture was further incubated in PBS buffer (pH 7.4) containing 0.1% (v/w) BSA and 0.02% (v/v) Tween20 at 30° C. for 5 minutes.

Kd | koff | kon | Binder
245 pM | 0.000368 s⁻¹ | 1.5e+06 M⁻¹ s⁻¹ | B4
< 1 pM | < 1e-07 s⁻¹ | 368000 M⁻¹ s⁻¹ | B1
51.9 pM | 2.63e-05 s⁻¹ | 506000 M⁻¹ s⁻¹ | B2
< 1 pM | < 1e-07 s⁻¹ | 398000 M⁻¹ s⁻¹ | B5
148 pM | 3.64e-05 s⁻¹ | 245000 M⁻¹ s⁻¹ | B6
116 pM | 3.95e-05 s⁻¹ | 341000 M⁻¹ s⁻¹ | B3
